B1: ATE1 (parent)
chain: DYFPSEDFYRCGYCKNESGSRSNG
B2: FADS1 (parent)
chain: LNFQIEHHLFPTMPRHNYHKVAPL
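Note: lentivirally expressed fusions sorted by FACS into six bins by GFP to DsRed ratio, PSI derived from sequencing read proportions per bin multiplied by bin number.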

The first data set covers variants of B1. Nature of the data set: protein stability index of a GFP-peptide fusion (GPS, HEK-293T) (PSI 1-6); higher = more stable. Conditions: c terminus: a fixed tail appended.
Turning to DYFPSEMFYRCGYCKNESGSRSNG [D7M], the protein stability index amounted to 1.83.

In the case of DYFPSEKFYRCGYCKNESGSRSNG [D7K], the protein stability index worked out at 2.53.

Consider DYFPSEGFYRCGYCKNESGSRSNG [D7G], for which the protein stability index is 1.85.

Consider DYFPSEWFYRCGYCKNESGSRSNG [D7W], for which the protein stability index is 1.7.

In the case of DYFPSEIFYRCGYCKNESGSRSNG [D7I], the protein stability index was determined as 1.11.

In the case of DYFPSEYFYRCGYCKNESGSRSNG [D7Y], the protein stability index amounted to 2.85.

As to DYFPSELFYRCGYCKNESGSRSNG [D7L], the protein stability index came to 2.29.

For DYFPSEHFYRCGYCKNESGSRSNG [D7H], the protein stability index worked out at 1.76.

For DYFPSENFYRCGYCKNESGSRSNG [D7N], the protein stability index amounted to 2.28.

Take DYFPSESFYRCGYCKNESGSRSNG [D7S]: the protein stability index was determined as 2.24.

As for DYFPSEQFYRCGYCKNESGSRSNG [D7Q], the protein stability index was determined as 3.11.

As to DYFPSEFFYRCGYCKNESGSRSNG [D7F], the protein stability index was determined as 1.17.

For DYFPSERFYRCGYCKNESGSRSNG [D7R], the protein stability index is 1.93.

Consider DYFPSEAFYRCGYCKNESGSRSNG [D7A], for which the protein stability index came out at 1.63.

Take DYFPREDFYRCGYCKNESGSRSNG [S5R]: the protein stability index stood at 1.7.

For the variant DYFPVEDFYRCGYCKNESGSRSNG [S5V], the protein stability index was determined as 2.16.

DYFPIEDFYRCGYCKNESGSRSNG [S5I]: the protein stability index amounted to 1.88.

For DYFPPEDFYRCGYCKNESGSRSNG [S5P], the protein stability index came to 2.32.

For the variant DYFPFEDFYRCGYCKNESGSRSNG [S5F], the protein stability index worked out at 2.01.

Regarding DYFPQEDFYRCGYCKNESGSRSNG [S5Q], the protein stability index was found to be 2.41.

As for DYFPKEDFYRCGYCKNESGSRSNG [S5K], the protein stability index came to 2.02.

Take DYFPGEDFYRCGYCKNESGSRSNG [S5G]: the protein stability index is 2.17.

For DYFPDEDFYRCGYCKNESGSRSNG [S5D], the protein stability index turned out to be 2.46.

For DYFPMEDFYRCGYCKNESGSRSNG [S5M], the protein stability index turned out to be 1.42.

As for DYFPTEDFYRCGYCKNESGSRSNG [S5T], the protein stability index stood at 2.15.

For the variant DYFPAEDFYRCGYCKNESGSRSNG [S5A], the protein stability index worked out at 2.19.

Turning to DYFPCEDFYRCGYCKNESGSRSNG [S5C], the protein stability index turned out to be 1.52.

DYFPNEDFYRCGYCKNESGSRSNG [S5N]: the protein stability index is 1.61.

Consider DYFPLEDFYRCGYCKNESGSRSNG [S5L], for which the protein stability index came to 1.61.

DYFPHEDFYRCGYCKNESGSRSNG [S5H]: the protein stability index came out at 1.98.

DYFPYEDFYRCGYCKNESGSRSNG [S5Y]: the protein stability index amounted to 2.83.

In a further data set the parent is B2. The data set is described as above. The following applies: c terminus: a fixed tail appended.
Consider LNFQIEHHLFPTMPRHNYHKYAPL [V21Y], for which the protein stability index was 1.94.

LNFQIEHHLFPTMPRHNYHKLAPL [V21L]: the protein stability index came to 2.24.

Regarding LNFQIEHHLFPTMPRHNYHKWAPL [V21W], the protein stability index is 2.14.

For LNFQIEHHLFPTMPRHNYHKMAPL [V21M], the protein stability index worked out at 2.5.

Turning to LNFQIEHHLFPTMPRHNYHKPAPL [V21P], the protein stability index is 2.39.

Regarding LNFQIEHHLFPTMPRHNYHKSAPL [V21S], the protein stability index was 1.98.

With LNFQIEHHLFPTMPRHNYHKTAPL [V21T], the protein stability index is 2.23.

Turning to LNFQIEHHLFPTMPRHNYHKNAPL [V21N], the protein stability index is 1.58.

As for LNFQIEHHLFPTMPRHNYHKQAPL [V21Q], the protein stability index is 1.46.

Regarding LNFQIEHHLFPTMPRHNYHKRAPL [V21R], the protein stability index was 1.7.

On to LNFQIEHHLFPTMPRHNYHKVAPS [L24S], for which the protein stability index turned out to be 1.15.

As for LNFQIEHHLFPTMPRHNYHKVAPN [L24N], the protein stability index is 2.15.

As to LNFQIEHHLFPTMPRHNYHKVAPI [L24I], the protein stability index was determined as 3.69.

Take LNFQIEHHLFPTMPRHNYHKVAPF [L24F]: the protein stability index came to 2.15.

As to LNFQIEHHLFPTMPRHNYHKVAPK [L24K], the protein stability index stood at 1.79.

Consider LNFQIEHHLFPTMPRHNYHKVAPR [L24R], for which the protein stability index was determined as 1.51.

As for LNFQIEHHLFPTMPRHNYHKVAPW [L24W], the protein stability index was 2.03.

Turning to LNFQIEHHLFPTMPRHNYHKVAPP [L24P], the protein stability index stood at 2.3.

For the variant LNFQIEHHLFPTMPRHNYHKVAPV [L24V], the protein stability index stood at 1.5.

In the case of LNFQIEHHLFPTMPRHNYHKVAPC [L24C], the protein stability index was determined as 2.52.

As for LNFQIEHHLFPTMPRHNYHKVAPD [L24D], the protein stability index was found to be 2.03.

On to LNFQIEHHLFPTMPRHNYHKVAPQ [L24Q], for which the protein stability index is 2.02.

Turning to LNFQIEHHLFPTMPRHNYHKVAPM [L24M], the protein stability index stood at 1.81.

As for LNFQIEHHLFPTMPRHNYHKVAPG [L24G], the protein stability index turned out to be 2.35.

On to LNFQIEHHLFPTMPRHNYHKVAPA [L24A], for which the protein stability index turned out to be 1.71.

In the case of LNFQIEHHLFPTMPRHNYHKVAPE [L24E], the protein stability index worked out at 2.33.

Consider LNFQIEHHLFPTMPRHNYHKVAPT [L24T], for which the protein stability index came out at 1.56.

For the variant LNFQIEHHLFPTMPRHNYHKVAPY [L24Y], the protein stability index was 3.02.

With LNFQIEHHLFPTMPRHNYHKVAPH [L24H], the protein stability index is 2.27.

With LNFQIEHHLFPTMPRHNYHKVALL [P23L], the protein stability index is 2.4.

On to LNFQIEHHLFPTMPRHNYHKVAEL [P23E], for which the protein stability index came out at 2.21.

Take LNFQIEHHLFPTMPRHNYHKVAIL [P23I]: the protein stability index amounted to 2.42.

As to LNFQIEHHLFPTMPRHNYHKVAGL [P23G], the protein stability index amounted to 2.97.

Take LNFQIEHHLFPTMPRHNYHKVAML [P23M]: the protein stability index stood at 2.06.

Take LNFQIEHHLFPTMPRHNYHKVARL [P23R]: the protein stability index was found to be 1.69.

Consider LNFQIEHHLFPTMPRHNYHKVAAL [P23A], for which the protein stability index is 2.81.

On to LNFQIEHHLFPTMPRHNYHKVACL [P23C], for which the protein stability index was determined as 1.88.

LNFQIEHHLFPTMPRHNYHKVAWL [P23W]: the protein stability index was 2.27.

Turning to LNFQIEHHLFPTMPRHNYHKVADL [P23D], the protein stability index was found to be 1.33.

Take LNFQIEHHLFPTMPRHNYHKVAKL [P23K]: the protein stability index was 1.54.

With LNFQIEHHLFPTMPRHNYHKVAYL [P23Y], the protein stability index stood at 1.79.

Consider LNFQIEHHLFPTMPRHNYHKVAQL [P23Q], for which the protein stability index is 2.63.

Turning to LNFQIEHHLFPTMPRHNYHKVANL [P23N], the protein stability index is 2.09.

LNFQIEHHLFPTMPRHNYHKVASL [P23S]: the protein stability index is 1.88.

As for LNFQIEHHLFPTMPRHNYHKVNPL [A22N], the protein stability index turned out to be 1.69.

On to LNFQIEHHLFPTMPRHNYHKVQPL [A22Q], for which the protein stability index stood at 2.06.

As to LNFQIEHHLFPTMPRHNYHKVVPL [A22V], the protein stability index amounted to 2.82.

As to LNFQIEHHLFPTMPRHNYHKVTPL [A22T], the protein stability index was found to be 2.09.

For LNFQIEHHLFPTMPRHNYHKVYPL [A22Y], the protein stability index came to 2.21.

For the variant LNFQIEHHLFPTMPRHNYHKVPPL [A22P], the protein stability index is 2.1.

Turning to LNFQIEHHLFPTMPRHNYHKVFPL [A22F], the protein stability index stood at 1.78.

Take LNFQIEHHLFPTMPRHNYHKVDPL [A22D]: the protein stability index is 1.92.

In the case of LNFQIEHHLFPTMPRHNYHKVMPL [A22M], the protein stability index was 3.28.

As to LNFQIEHHLFPTMPRHNYHKVCPL [A22C], the protein stability index was 1.65.

As to LNFQIEHHLFPTMPRHNYHKVSPL [A22S], the protein stability index amounted to 2.91.

Turning to LNFQIEHHLFPTMPRHNYHKVKPL [A22K], the protein stability index was found to be 1.89.

As to LNFQIEHHLFPTMPRHNYHKVGPL [A22G], the protein stability index came to 1.05.

Turning to LNFQIEHHLFPTMPRHNYHKVIPL [A22I], the protein stability index is 3.37.

As for LNFQIEHHLFPTMPRHNYHKVWPL [A22W], the protein stability index was 2.34.

Turning to LNFQIEHHLFPTMPRHNYHKVHPL [A22H], the protein stability index turned out to be 1.89.

LNFQIEHHLFPTMPRHNYHKVLPL [A22L]: the protein stability index is 2.05.

LNFQIEHHLFPTMPRHNYHKVRPL [A22R]: the protein stability index was found to be 1.99.

Turning to LNFQIEHHLFPTMPRHNYHKVEPL [A22E], the protein stability index worked out at 1.85.

Values taken from the supplement of paper PMC10567573.
